B1: Hairpin Ribozyme (parent)
chain: GUCCUCUUUCACGUGCGCGUGAAAGAGAGAAGUGAACCAGAGAAACACACGUUGUGGUAUAUUACCUGGUA

We go through 167 variants from the RNAGym collection of RNA variant scans (doi:10.7554/elife.80360).

Variants of B1 are the subject of the series. As to the kind of experiment: self-cleavage, relative activity (ratio to wild type); higher = more cleavage; co-transcriptional.
Turning to G13A A61U, the self-cleavage was determined as 0.136.
With C12G U70A the figure was 0.728; with G13A U55C, 0.214; with C12G G32U, 0.179.
Next, U14A A24U: 0.644; G13A A39G: 0.279.
For the variant C12U U52G, the self-cleavage was determined as 0.875.
Take C12U U52A: the self-cleavage came out at 0.92.
With C12U U52C, the self-cleavage amounted to 1.1.
With G13C A23G the figure was 0.373; with G13C A23U, 0.491; with G13C A23C, 0.364.
Next, U14A C66G: 0.143; C12G G27A: 0.29.
Consider C12G G27U, for which the self-cleavage turned out to be 0.261.
Next, G13A C50U: 0.373; C12U A24U: 0.802; C12U A41G: 0.676.
As to G13U U33A, the self-cleavage was 0.105.
For the variant C12G U20C, the self-cleavage amounted to 1.01.
As to G13A U70C, the self-cleavage was 0.615.
For the variant G13U G56C, the self-cleavage is 0.12.
Take G13A G27C: the self-cleavage was 0.217.
For G13A G27A, the self-cleavage came out at 0.462.
Consider U14A A28C, for which the self-cleavage stood at 0.454.
For the variant G13C U53G, the self-cleavage was determined as 0.245.
Turning to U14A G34U, the self-cleavage was found to be 1.47.
On to C12G G15A, for which the self-cleavage worked out at 0.881.
For the variant C12U C16U, the self-cleavage came to 0.916.
For the variant U14A C38A, the self-cleavage was 0.171.
Regarding C12U G29A, the self-cleavage stood at 0.164.
Consider C12U U55A, for which the self-cleavage was found to be 0.191.
For G13A G19C, the self-cleavage turned out to be 0.804.
Next, G13A G19U: 0.825; G13A G32C: 0.136.
Next, G13A G32A: 0.0965; U14A A26C: 0.817; G13U A59U: 0.181.
On to G13U A59C, for which the self-cleavage is 0.161.
With C12G G69A the figure was 0.284.
As for C12G G69U, the self-cleavage was 0.259.
For the variant G13C A61G, the self-cleavage worked out at 0.164.
With G13A A45G the figure was 0.161.
As for G13C C16G, the self-cleavage is 0.407.
With G13U G51U, the self-cleavage was 0.887.
Take G13U G51C: the self-cleavage was 0.745.
As to U14A A49C, the self-cleavage worked out at 0.117.
For U14A A49G, the self-cleavage stood at 0.554.
For the variant U14A, the self-cleavage was determined as 0.956.
Turning to C12G C65U, the self-cleavage stood at 0.28.
With C12G C65G the figure was 0.174.
In the case of G13C G51U, the self-cleavage came to 0.61.
As to C12U G57C, the self-cleavage was found to be 0.222.
For C12G G56U, the self-cleavage is 0.124.
On to C12G G56A, for which the self-cleavage came out at 0.14.
G13U U70A: the self-cleavage came out at 0.771.
Take G13C G27C: the self-cleavage stood at 0.161.
As to G13U G40A, the self-cleavage worked out at 0.342.
Regarding G13U U58A, the self-cleavage is 0.808.
On to G13U U58C, for which the self-cleavage turned out to be 0.919.
On to G13U G68U, for which the self-cleavage was 0.243.
Take C12U G34U: the self-cleavage worked out at 1.18.
Turning to G13C U63C, the self-cleavage was 0.111.
As for G13C U63G, the self-cleavage came to 0.164.
On to G13A A71G, for which the self-cleavage was 0.912.
With G13A A71C, the self-cleavage is 1.36.
With U14A G19A the figure was 0.756; with C12U U67C, 0.237; with C12U G32A, 0.134.
Consider C12U G15A, for which the self-cleavage is 0.687.
Next, C12U G15U: 1.08; G13A G17A: 0.747.
As for G13A G17C, the self-cleavage amounted to 0.507.
On to G13A A43U, for which the self-cleavage was 0.144.
As to C12G U60C, the self-cleavage is 1.04.
As to G13U A61U, the self-cleavage is 0.181.
Turning to U14A A61C, the self-cleavage was 0.331.
Take U14A A22U: the self-cleavage was 0.715.
Turning to U14A A22G, the self-cleavage is 0.762.
Regarding C12U G42C, the self-cleavage came to 0.265.
For the variant U14A A31U, the self-cleavage came to 0.124.
For the variant G13C G15C, the self-cleavage was found to be 0.541.
As for G13C G15A, the self-cleavage was 0.74.
Consider G13A G25U, for which the self-cleavage was found to be 0.512.
Take C12U A61U: the self-cleavage stood at 0.133.
With C12U A61G the figure was 0.255; with G13A A24U, 0.627.
For the variant G13U A49G, the self-cleavage was 0.483.
For C12U G54U, the self-cleavage is 0.58.
Turning to U14A G17U, the self-cleavage was determined as 0.96.
Regarding U14A G17A, the self-cleavage came to 1.03.
With U14A A45G the figure was 0.0459.
With C12U C66G the figure was 0.126; with C12U C66U, 0.514; with G13C A59G, 0.13.
C12G C50A: the self-cleavage is 0.306.
G13C C38U: the self-cleavage is 0.384.
As to G13C C38G, the self-cleavage amounted to 0.179.
With G13C C38A, the self-cleavage came to 0.2.
Take G13C A22G: the self-cleavage was 0.496.
With G13A A22C, the self-cleavage turned out to be 0.607.
With G13A A22G, the self-cleavage was 0.676.
With C12G U52G the figure was 0.718; with G13U G54A, 0.518.
With C12G G57C the figure was 0.165; with C12U C37G, 0.27; with G13C G34U, 1.1.
In the case of G13C G34C, the self-cleavage amounted to 1.1.
As to C12U G40U, the self-cleavage is 0.191.
With G13C U52C the figure was 0.646; with G13C U52G, 0.76; with C12G G13A, 0.851.
As to U14A A39G, the self-cleavage turned out to be 0.345.
G13C G21U: the self-cleavage amounted to 0.49.
Turning to C12U C48U, the self-cleavage came to 0.126.
Consider C12U U62C, for which the self-cleavage is 0.27.
Turning to C12U A39C, the self-cleavage is 0.407.
Next, C12U A39U: 0.45; G13U U53A: 0.777; G13C U60G: 0.479.
For G13A G57U, the self-cleavage stood at 0.205.
Regarding C12U A47U, the self-cleavage stood at 0.194.
On to C12U A47G, for which the self-cleavage amounted to 0.131.
Next, G13U U62A: 0.179.
With G13A G34C the figure was 1.33; with G13U C38G, 0.136; with U14A G27A, 0.39.
For U14A G27C, the self-cleavage came out at 0.196.
Take U14A G27U: the self-cleavage is 0.192.
For C12G U67C, the self-cleavage was determined as 0.233.
With G13U U63G, the self-cleavage is 0.257.
Next, G13A G56C: 0.119.
In the case of U14A G54C, the self-cleavage stood at 0.338.
With G13A C48U, the self-cleavage is 0.22.
G13A C48G: the self-cleavage turned out to be 0.118.
Take G13A C48A: the self-cleavage was 0.144.
As for G13A U20C, the self-cleavage came out at 0.902.
For the variant G13C C37G, the self-cleavage is 0.183.
Next, U14A A36U: 0.582; U14A A36C: 0.502; G13C G57U: 0.164.
On to G13C G56A, for which the self-cleavage is 0.137.
In the case of G13A G40U, the self-cleavage is 0.129.
Take G13A C66U: the self-cleavage came to 0.419.
Turning to G13A C66A, the self-cleavage stood at 0.173.
For the variant U14A C50U, the self-cleavage amounted to 0.397.
Next, U14A C50A: 0.13; G13U A30C: 0.166.
For G13C A31C, the self-cleavage came to 0.227.
Regarding G13C A31G, the self-cleavage was 0.515.
Next, C12G G68C: 0.144; C12G G68A: 0.233.
With G13C A45G, the self-cleavage is 0.178.
With G13C A45U the figure was 0.0506; with G13C A45C, 0.145; with U14A G21C, 0.467.
In the case of U14A G57C, the self-cleavage was 0.132.
As to U14A G57U, the self-cleavage was 0.195.
Take C12G G42U: the self-cleavage was 0.343.
With C12U G19U, the self-cleavage is 0.954.
As for G13U G25C, the self-cleavage was found to be 0.274.
In the case of G13A U63G, the self-cleavage was determined as 0.0786.
For the variant G13A U63C, the self-cleavage stood at 0.175.
Turning to U14A A41G, the self-cleavage came to 0.867.
Turning to G13A, the self-cleavage stood at 0.87.
Turning to G13C, the self-cleavage is 0.681.
Consider G13U, for which the self-cleavage is 0.763.
